Reference: publication PMC11018115, “The EIN3 transcription factor GmEIL1 improves soybean resistance to Phytophthora sojae”

T1: GmEIL1 (Glycine max (cv. Suinong 10), UniProt A0A0R4J4Z8 1-610)
T1 sequence: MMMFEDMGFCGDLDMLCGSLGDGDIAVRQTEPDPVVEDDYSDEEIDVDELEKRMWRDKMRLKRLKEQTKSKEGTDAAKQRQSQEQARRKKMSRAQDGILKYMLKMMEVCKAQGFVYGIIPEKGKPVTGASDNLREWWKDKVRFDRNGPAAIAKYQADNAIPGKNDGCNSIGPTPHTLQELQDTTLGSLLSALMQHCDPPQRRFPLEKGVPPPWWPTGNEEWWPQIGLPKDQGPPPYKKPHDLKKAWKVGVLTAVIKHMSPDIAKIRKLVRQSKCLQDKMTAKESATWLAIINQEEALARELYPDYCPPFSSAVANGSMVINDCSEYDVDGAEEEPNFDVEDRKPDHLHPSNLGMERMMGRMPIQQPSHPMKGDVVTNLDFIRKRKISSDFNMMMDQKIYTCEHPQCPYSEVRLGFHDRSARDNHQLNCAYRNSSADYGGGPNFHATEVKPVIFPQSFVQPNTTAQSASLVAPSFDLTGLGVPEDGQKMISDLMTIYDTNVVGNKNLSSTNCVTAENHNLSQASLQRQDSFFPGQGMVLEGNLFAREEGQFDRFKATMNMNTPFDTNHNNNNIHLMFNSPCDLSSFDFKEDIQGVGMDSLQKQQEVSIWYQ


Biological target: T1, GmEIL1
Assay: EMSA; EMSA after Garner and Revzin (1981), chemiluminescent detection; buffer, salt, pH and temperature not stated
Settings: protein: recombinant; chain copies: 2; label: digoxigenin-ddUTP (Methods, legend); text also says biotin

Row | Binder | binding result
1 | EBS probe (dsDNA) DNA 1: GTTGTTTGGGATTCAAGGGGCATGTATCTTGAATCC DNA 2: GGATTCAAGATACATGCCCCTTGAATCCCAAACAAC | binds
2 | mEBS probe (dsDNA) DNA 1: GTTGTTTGGGATTCAAGGGGCCCCCCTCTTGAATCC DNA 2: GGATTCAAGAGGGGGGCCCCTTGAATCCCAAACAAC | no binding
